The source of these data is the supplement of paper PMC9112550, “Optimization of the antimicrobial peptide Bac7 by deep mutational scanning” (BMC Biology, 2022).
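Note: peptides expressed intracellularly from a pBAD plasmid library in pooled LB shake-flask culture, induced with 0.3% L-arabinose, DNA abundance read by NGS, three biological replicates, DESeq2 with apeglm shrinkage.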

This data set relates to Escherichia coli TOP10. Nature of the data set: shrunken log2 fold change of peptide-encoding DNA abundance (4.5 h post-induction vs induction); higher = less antimicrobial activity (less host growth inhibition). The following applies: time post-induction: 4.5 h; library: site-saturation at positions 5, 18, 19, 20.
In the case of RRIRTRPPRLPRPRPRPKDPPRP, the “shrunken log2 fold change” value is 0.0667.
Regarding RRIRNRPPRLPRPRPRPNSNPRP, the “shrunken log2 fold change” value is -0.744.
Regarding RRIRKRPPRLPRPRPRPAALPRP, the “shrunken log2 fold change” value was determined as 0.831.
Regarding RRIRPRPPRLPRPRPRPEWFPRP, the “shrunken log2 fold change” value came to 0.341.
With RRIRIRPPRLPRPRPRPHIMPRP, the “shrunken log2 fold change” value was -1.41.
Consider RRIRRRPPRLPRPRPRPRPEPRP, for which the “shrunken log2 fold change” value worked out at 0.343.
In the case of RRIRKRPPRLPRPRPRPIECPRP, the “shrunken log2 fold change” value is -0.0298.
As to RRIRHRPPRLPRPRPRPHLDPRP, the “shrunken log2 fold change” value was -0.214.
Consider RRIRGRPPRLPRPRPRPFPFPRP, for which the “shrunken log2 fold change” value was -0.0622.
Take RRIRPRPPRLPRPRPRPTYPPRP: the “shrunken log2 fold change” value was -0.137.
Take RRIRFRPPRLPRPRPRPFWTPRP: the “shrunken log2 fold change” value is -0.257.
Turning to RRIRCRPPRLPRPRPRPNSAPRP, the “shrunken log2 fold change” value came out at 0.0338.
For the sequence RRIRRRPPRLPRPRPRPKIYPRP, the “shrunken log2 fold change” value is -0.127.
The figure for RRIRTRPPRLPRPRPRPMRQPRP is -0.01.
Then RRIRPRPPRLPRPRPRPGSIPRP, with -0.261; and RRIRHRPPRLPRPRPRPYLYPRP, with -0.482.
Then RRIRHRPPRLPRPRPRPMTPPRP, with 0.0337.
For the sequence RRIRDRPPRLPRPRPRPCMQPRP, the “shrunken log2 fold change” value is -0.0524.
As for RRIRCRPPRLPRPRPRPRKCPRP, the “shrunken log2 fold change” value was 0.0179.
The figure for RRIRCRPPRLPRPRPRPHMNPRP is -0.843.
As for RRIRMRPPRLPRPRPRPHIMPRP, the “shrunken log2 fold change” value is -0.422.
For RRIRTRPPRLPRPRPRPTTDPRP, the “shrunken log2 fold change” value was -0.0867.
Take RRIRIRPPRLPRPRPRPYWTPRP: the “shrunken log2 fold change” value was -0.18.
Consider RRIRRRPPRLPRPRPRPMKNPRP, for which the “shrunken log2 fold change” value is 0.298.
On to RRIRLRPPRLPRPRPRPILTPRP, for which the “shrunken log2 fold change” value was -0.281.
For the sequence RRIRRRPPRLPRPRPRPAMRPRP, the “shrunken log2 fold change” value was 0.538.
Turning to RRIRERPPRLPRPRPRPTWKPRP, the “shrunken log2 fold change” value is -0.012.
Regarding RRIRARPPRLPRPRPRPCLDPRP, the “shrunken log2 fold change” value was found to be 0.313.
For the sequence RRIRFRPPRLPRPRPRPVFEPRP, the “shrunken log2 fold change” value is -0.0387.
With RRIRTRPPRLPRPRPRPYENPRP, the “shrunken log2 fold change” value is -0.0748.
As to RRIRTRPPRLPRPRPRPHNSPRP, the “shrunken log2 fold change” value is -1.22.
Take RRIRQRPPRLPRPRPRPLYLPRP: the “shrunken log2 fold change” value is -0.511.
Turning to RRIRARPPRLPRPRPRPISPPRP, the “shrunken log2 fold change” value was -0.141.
For RRIRMRPPRLPRPRPRPYPHPRP, the “shrunken log2 fold change” value was found to be 0.00442.
In the case of RRIRARPPRLPRPRPRPGNSPRP, the “shrunken log2 fold change” value was -0.108.
For RRIRERPPRLPRPRPRPDKMPRP, the “shrunken log2 fold change” value is -0.0703.
With RRIRHRPPRLPRPRPRPTQIPRP, the “shrunken log2 fold change” value is 0.51.
For the sequence RRIRLRPPRLPRPRPRPHQFPRP, the “shrunken log2 fold change” value came to 0.0562.
On to RRIRPRPPRLPRPRPRPYEDPRP, for which the “shrunken log2 fold change” value was -0.163.
On to RRIRMRPPRLPRPRPRPFKWPRP, for which the “shrunken log2 fold change” value is -0.0704.
The figure for RRIRVRPPRLPRPRPRPRCTPRP is 0.0149; for RRIRWRPPRLPRPRPRPLCHPRP it is -0.0785; for RRIRMRPPRLPRPRPRPRDLPRP it is 0.266.
For the sequence RRIRSRPPRLPRPRPRPVEIPRP, the “shrunken log2 fold change” value is -0.0626.
As to RRIRWRPPRLPRPRPRPPHTPRP, the “shrunken log2 fold change” value came out at 0.494.
As to RRIRYRPPRLPRPRPRPPCYPRP, the “shrunken log2 fold change” value was -0.378.
On to RRIRTRPPRLPRPRPRPRMSPRP, for which the “shrunken log2 fold change” value was -0.259.
RRIRKRPPRLPRPRPRPTEDPRP: the “shrunken log2 fold change” value is 1.03.
As to RRIRDRPPRLPRPRPRPYCEPRP, the “shrunken log2 fold change” value is -0.42.
Turning to RRIRQRPPRLPRPRPRPHGFPRP, the “shrunken log2 fold change” value was -0.0134.
Then RRIRKRPPRLPRPRPRPQNWPRP, with 0.508; and RRIRARPPRLPRPRPRPCCQPRP, with 0.102; and RRIRCRPPRLPRPRPRPTQIPRP, with 0.452.
In the case of RRIRFRPPRLPRPRPRPRQKPRP, the “shrunken log2 fold change” value is 0.363.
Take RRIRYRPPRLPRPRPRPYFAPRP: the “shrunken log2 fold change” value is -0.796.
For RRIRCRPPRLPRPRPRPTVTPRP, the “shrunken log2 fold change” value was -0.208.
As for RRIRQRPPRLPRPRPRPVIIPRP, the “shrunken log2 fold change” value was -1.01.
For RRIRIRPPRLPRPRPRPSVCPRP, the “shrunken log2 fold change” value was -0.294.
Regarding RRIRCRPPRLPRPRPRPLGLPRP, the “shrunken log2 fold change” value was -0.0163.
As for RRIRRRPPRLPRPRPRPAVTPRP, the “shrunken log2 fold change” value was -0.111.
In the case of RRIRNRPPRLPRPRPRPPPTPRP, the “shrunken log2 fold change” value stood at 0.867.
In the case of RRIRFRPPRLPRPRPRPLNLPRP, the “shrunken log2 fold change” value is -0.542.
For RRIRTRPPRLPRPRPRPEGAPRP, the “shrunken log2 fold change” value was found to be 0.783.
Then RRIRLRPPRLPRPRPRPNPWPRP, with 0.0455.
As for RRIRPRPPRLPRPRPRPYLRPRP, the “shrunken log2 fold change” value stood at 0.0823.
Then RRIRGRPPRLPRPRPRPWRPPRP, with 0.376; and RRIRARPPRLPRPRPRPGRSPRP, with 0.206; and RRIRARPPRLPRPRPRPLTAPRP, with 0.542.
Consider RRIRERPPRLPRPRPRPKSRPRP, for which the “shrunken log2 fold change” value worked out at 0.0203.
The figure for RRIRFRPPRLPRPRPRPHTYPRP is -0.554; for RRIRWRPPRLPRPRPRPGAMPRP it is 0.524; for RRIRYRPPRLPRPRPRPDQSPRP it is -0.0117.
Turning to RRIRNRPPRLPRPRPRPRSIPRP, the “shrunken log2 fold change” value was -0.288.
Consider RRIRCRPPRLPRPRPRPISTPRP, for which the “shrunken log2 fold change” value was -0.245.
With RRIRSRPPRLPRPRPRPASTPRP, the “shrunken log2 fold change” value was -0.16.
As for RRIRERPPRLPRPRPRPMEQPRP, the “shrunken log2 fold change” value was -0.136.
With RRIRCRPPRLPRPRPRPQWEPRP, the “shrunken log2 fold change” value was 0.0667.
On to RRIRERPPRLPRPRPRPAWHPRP, for which the “shrunken log2 fold change” value was found to be 0.324.
For RRIRARPPRLPRPRPRPHDDPRP, the “shrunken log2 fold change” value is -0.0805.
Turning to RRIRPRPPRLPRPRPRPNGTPRP, the “shrunken log2 fold change” value turned out to be 0.247.
For RRIRFRPPRLPRPRPRPRLHPRP, the “shrunken log2 fold change” value stood at 0.0811.
As for RRIRPRPPRLPRPRPRPKPKPRP, the “shrunken log2 fold change” value worked out at 0.382.
Regarding RRIRLRPPRLPRPRPRPAFRPRP, the “shrunken log2 fold change” value was 0.0862.
Then RRIRLRPPRLPRPRPRPNPVPRP, with 0.0363; and RRIRQRPPRLPRPRPRPSWRPRP, with 0.0854.
Then RRIRNRPPRLPRPRPRPKDSPRP, with -0.0312; and RRIRHRPPRLPRPRPRPCAAPRP, with -0.195; and RRIRGRPPRLPRPRPRPWTLPRP, with 0.161.
Take RRIRNRPPRLPRPRPRPWLWPRP: the “shrunken log2 fold change” value was 0.165.
Take RRIRERPPRLPRPRPRPDTHPRP: the “shrunken log2 fold change” value was -0.532.
For RRIRVRPPRLPRPRPRPPWAPRP, the “shrunken log2 fold change” value worked out at 0.537.
For the sequence RRIRFRPPRLPRPRPRPDWFPRP, the “shrunken log2 fold change” value was -0.32.
For the sequence RRIRSRPPRLPRPRPRPARKPRP, the “shrunken log2 fold change” value was determined as 0.213.
Then RRIRRRPPRLPRPRPRPYIKPRP, with -0.509.
Take RRIRKRPPRLPRPRPRPACIPRP: the “shrunken log2 fold change” value stood at 0.031.
The figure for RRIRRRPPRLPRPRPRPQWEPRP is -0.0504; for RRIRPRPPRLPRPRPRPEQWPRP it is 0.0326.
Regarding RRIRHRPPRLPRPRPRPGLYPRP, the “shrunken log2 fold change” value is -0.149.
For the sequence RRIRCRPPRLPRPRPRPTYHPRP, the “shrunken log2 fold change” value is -0.815.
Then RRIRERPPRLPRPRPRPFTMPRP, with -0.585.
With RRIRHRPPRLPRPRPRPFRSPRP, the “shrunken log2 fold change” value was -0.000777.
RRIRIRPPRLPRPRPRPLIGPRP: the “shrunken log2 fold change” value is -0.0888.
Consider RRIRARPPRLPRPRPRPPCPPRP, for which the “shrunken log2 fold change” value was 0.489.
As to RRIRFRPPRLPRPRPRPYERPRP, the “shrunken log2 fold change” value was -0.119.
Turning to RRIRGRPPRLPRPRPRPIQTPRP, the “shrunken log2 fold change” value was found to be 0.0411.
On to RRIRPRPPRLPRPRPRPKYGPRP, for which the “shrunken log2 fold change” value was -0.491.
Then RRIRCRPPRLPRPRPRPCSCPRP, with -1.33; and RRIRFRPPRLPRPRPRPELFPRP, with 0.15; and RRIRMRPPRLPRPRPRPEQYPRP, with 0.282.
Consider RRIRNRPPRLPRPRPRPMIKPRP, for which the “shrunken log2 fold change” value is -0.456.
For RRIRDRPPRLPRPRPRPTLCPRP, the “shrunken log2 fold change” value was found to be 0.33.
Turning to RRIRYRPPRLPRPRPRPHTGPRP, the “shrunken log2 fold change” value was -1.06.
Regarding RRIRLRPPRLPRPRPRPSSFPRP, the “shrunken log2 fold change” value is -0.0574.
On to RRIRQRPPRLPRPRPRPESDPRP, for which the “shrunken log2 fold change” value is 0.319.
Turning to RRIRGRPPRLPRPRPRPDDCPRP, the “shrunken log2 fold change” value was determined as 0.152.
With RRIRYRPPRLPRPRPRPSKPPRP, the “shrunken log2 fold change” value is -0.833.
As to RRIRARPPRLPRPRPRPKFEPRP, the “shrunken log2 fold change” value was 0.574.
In the case of RRIRCRPPRLPRPRPRPRGFPRP, the “shrunken log2 fold change” value was found to be 0.249.
As for RRIRRRPPRLPRPRPRPENTPRP, the “shrunken log2 fold change” value was -0.0822.
For RRIRKRPPRLPRPRPRPRLHPRP, the “shrunken log2 fold change” value came out at 0.312.
Turning to RRIRFRPPRLPRPRPRPYNVPRP, the “shrunken log2 fold change” value was -0.138.
Consider RRIRMRPPRLPRPRPRPCTCPRP, for which the “shrunken log2 fold change” value was 0.0043.
With RRIRSRPPRLPRPRPRPEMTPRP, the “shrunken log2 fold change” value is -0.0333.
RRIRRRPPRLPRPRPRPFVMPRP: the “shrunken log2 fold change” value was -0.0623.
With RRIRLRPPRLPRPRPRPKINPRP, the “shrunken log2 fold change” value is -0.396.
